The results in this text go back to patent US20230114801A1 (SYSTIMMUNE, published 2023).

The target of one assay is T1, human EGFR (human, UniProt P00533 25-645, limits assumed).
T1 construct: Soluble antigen in Octet; construct not described
In words: BLI (Octet), binder on AHC sensor, 200 nM human EGFR, 1:1 fit. In general terms: In BLI a coated tip is dipped into the sample, and binding shifts an interference pattern.

The target of the next assay is T2, human CD3 (human, UniProt P07766 23-126; P04234 22-105).
T2 construct: also called His-tagged human CD3; human CD3 (Acro CDD-H52W1)
As to the kind of experiment: BLI (Octet), binder on AHC sensor, 100 nM human CD3, 1:1 fit.

Another assay concerns the target T3, human HER3 (human, UniProt P21860 20-643).
T3 construct: Soluble antigen in Octet; bought; also called human HER3 (Acro ER3-H5223)
In words: BLI (Octet), binder on AHC sensor, 200 nM human HER3, 1:1 fit.

B1: SI-75X4 (other)
chain 1: EVQLQESGGGLVQAGDSLSLSCLVSGRSFNSYTMGWFRQAPGKEREFVAAILWSGPTTYYADSVKGRFTISRDNAKNTVYLQMNSLKPEDTAVYYCAAALGVLVLAPGNVYSYWGQGTQVTVSSGGGGSGGGGSEVQLVESGGGLVQPGGSLRLSCAASGFTISTNAMSWVRQAPGKGLEWIGVITGRDITYYASWAKGRFTISRDNSKNTLYLQMSSLRSEDTAVYYCARDGGSSAITSNNIWGQGTLVTVSSASTKGPSVFPLAPSSKSTSGGTAALGCLVKDYFPEPVTVSWNSGALTSGVHTFPAVLQSSGLYSLSSVVTVPSSSLGTQTYICNVNHKPSNTKVDKRVEPKSCDKTHTCPPCPAPEAAGGPSVFLFPPKPKDTLMISRTPEVTCVVVDVSHEDPEVKFNWYVDGVEVHNAKTKPREEQYNSTYRVVSVLTVLHQDWLNGKEYKCAVSNKALPAPIEKTISKAKGQPREPQVYTLPPSRDELTKNQVSLSCAVKGFYPSDIAVEWESNGQPENNYKTTPPVLDSDGSFFLVSKLTVDKSRWQQGNVFSCSVMHEALHNHYTQKSLSLSPG
chain 2: QVQLVQSGGGLVQAGGSLSLSCAFSGRTFSMYTMGWFRQAPGKEREFVAANRGRGLSPDIADSVNGRFTISRDNAKNTLYLQMDSLKPEDTAVYYCAADLQYGSSWPQRSSAEYDYWGQGTTVTVSSGGGGSGGGGSDVVMTQSPSTLSASVGDRVTINCQASESISSWLAWYQQKPGKAPKLLIYEASKLASGVPSRFSGSGSGTEFTLTISSLQPDDFATYYCQGYFYFISRTYVNSFGGGTKVEIKRTVAAPSVFIFPPSDEQLKSGTASVVCLLNNFYPREAKVQWKVDNALQSGNSQESVTEQDSKDSTYSLSSTLTLSKADYEKHKVYACEVTHQGLSSPVTKSFNRGECGGDKTHTCPPCPAPEAAGGPSVFLFPPKPKDTLMISRTPEVTCVVVDVSHEDPEVKFNWYVDGVEVHNAKTKPREEQYNSTYRVVSVLTVLHQDWLNGKEYKCAVSNKALPAPIEKTISKAKGQPREPQVYTLPPSRDELTKNQVSLWCLVKGFYPSDIAVEWESNGQPENNYKTTPPVLDSDGSFFLYSKLTVDKSRWQQGNVFSCSVMHEALHNRFTQKSLSLSPG
notes: tri-miniGNC; D1 αEGFR VHH, D2 αHER3 VHH, D3 αCD3 (Fab)
One may read the Kd as the equilibrium constant for the complex coming apart. Regarding B1, the equilibrium dissociation constant (Kd) with human EGFR turned out to be 51.5 nM; with human CD3, 26.3 nM; in the assay with human HER3, 7.68 nM.

B2: SI-75X17 (other)
chain 1: EVQLQESGGGLVQAGDSLSLSCLVSGRSFNSYTMGWFRQAPGKEREFVAAILWSGPTTYYADSVKGRFTISRDNAKNTVYLQMNSLKPEDTAVYYCAAALGVLVLAPGNVYSYWGQGTQVTVSSGGGGSGGGGSQVQLQESGGRLVQPGEPLSLTCKTSGIDLSSNAIGWVRQAPGKGLEWIGVIFGSGNTYYASWAKGRFTISRSTSTVYLKMNSLRSEDTAIYYCARGGYSSDIWGQGTLVTVSSASTKGPSVFPLAPSSKSTSGGTAALGCLVKDYFPEPVTVSWNSGALTSGVHTFPAVLQSSGLYSLSSVVTVPSSSLGTQTYICNVNHKPSNTKVDKRVEPKSCDKTHTCPPCPAPEAAGGPSVFLFPPKPKDTLMISRTPEVTCVVVDVSHEDPEVKFNWYVDGVEVHNAKTKPREEQYNSTYRVVSVLTVLHQDWLNGKEYKCAVSNKALPAPIEKTISKAKGQPREPQVYTLPPSRDELTKNQVSLSCAVKGFYPSDIAVEWESNGQPENNYKTTPPVLDSDGSFFLVSKLTVDKSRWQQGNVFSCSVMHEALHNHYTQKSLSLSPG
chain 2: QVQLVQSGGGLVQAGGSLSLSCAFSGRTFSMYTMGWFRQAPGKEREFVAANRGRGLSPDIADSVNGRFTISRDNAKNTLYLQMDSLKPEDTAVYYCAADLQYGSSWPQRSSAEYDYWGQGTTVTVSSGGGGSGGGGSDPQLTQSPSSLSATVGQRVTINCQSSQSVAKNNNLAWFQQKPGKPPKLLIYSASTLAAGVPSRFSGSGSGTQFTLTITRVQSEDFATYYCSARDSGNIQSFGGGTRVEIKRTVAAPSVFIFPPSDEQLKSGTASVVCLLNNFYPREAKVQWKVDNALQSGNSQESVTEQDSKDSTYSLSSTLTLSKADYEKHKVYACEVTHQGLSSPVTKSFNRGECGGDKTHTCPPCPAPEAAGGPSVFLFPPKPKDTLMISRTPEVTCVVVDVSHEDPEVKFNWYVDGVEVHNAKTKPREEQYNSTYRVVSVLTVLHQDWLNGKEYKCAVSNKALPAPIEKTISKAKGQPREPQVYTLPPSRDELTKNQVSLWCLVKGFYPSDIAVEWESNGQPENNYKTTPPVLDSDGSFFLYSKLTVDKSRWQQGNVFSCSVMHEALHNRFTQKSLSLSPG
notes: tri-miniGNC; D1 αEGFR VHH, D2 αHER3 VHH, D3 αCD3* (Fab)
With B2, the results for the Kd with human EGFR, with human CD3 and with human HER3 were 14.8 nM, 68 nM and 4.58 nM, respectively.

B3: SI-75X9 (bispecific antibody, human IgG1, kappa, L234A L235A)
chain 1: QVQLQESGGRLVQPGEPLSLTCKTSGIDLSSNAIGWVRQAPGKGLEWIGVIFGSGNTYYASWAKGRFTISRSTSTVYLKMNSLRSEDTAIYYCARGGYSSDIWGQGTLVTVSSASTKGPSVFPLAPSSKSTSGGTAALGCLVKDYFPEPVTVSWNSGALTSGVHTFPAVLQSSGLYSLSSVVTVPSSSLGTQTYICNVNHKPSNTKVDKRVEPKSCDKTHTCPPCPAPEAAGGPSVFLFPPKPKDTLMISRTPEVTCVVVDVSHEDPEVKFNWYVDGVEVHNAKTKPREEQYNSTYRVVSVLTVLHQDWLNGKEYKCAVSNKALPAPIEKTISKAKGQPREPQVYTLPPSRDELTKNQVSLSCAVKGFYPSDIAVEWESNGQPENNYKTTPPVLDSDGSFFLVSKLTVDKSRWQQGNVFSCSVMHEALHNHYTQKSLSLSPG
chain 2: QVQLVQSGGGLVQAGGSLSLSCAFSGRTFSMYTMGWFRQAPGKEREFVAANRGRGLSPDIADSVNGRFTISRDNAKNTLYLQMDSLKPEDTAVYYCAADLQYGSSWPQRSSAEYDYWGQGTTVTVSSGGGGSGGGGSDPQLTQSPSSLSATVGQRVTINCQSSQSVAKNNNLAWFQQKPGKPPKLLIYSASTLAAGVPSRFSGSGSGTQFTLTITRVQSEDFATYYCSARDSGNIQSFGGGTRVEIKRTVAAPSVFIFPPSDEQLKSGTASVVCLLNNFYPREAKVQWKVDNALQSGNSQESVTEQDSKDSTYSLSSTLTLSKADYEKHKVYACEVTHQGLSSPVTKSFNRGECGGDKTHTCPPCPAPEAAGGPSVFLFPPKPKDTLMISRTPEVTCVVVDVSHEDPEVKFNWYVDGVEVHNAKTKPREEQYNSTYRVVSVLTVLHQDWLNGKEYKCAVSNKALPAPIEKTISKAKGQPREPQVYTLPPSRDELTKNQVSLWCLVKGFYPSDIAVEWESNGQPENNYKTTPPVLDSDGSFFLYSKLTVDKSRWQQGNVFSCSVMHEALHNRFTQKSLSLSPG
notes: bi-miniGNC; D2 αHER3 VHH, D3 αCD3* (Fab)
As to B3, the Kd with human CD3 was 84.2 nM; with human HER3 it was 3.86 nM.

B4: SI-75X19 (other)
chain 1: QVQLQESGGRLVQPGEPLSLTCKTSGIDLSSNAIGWVRQAPGKGLEWIGVIFGSGNTYYASWAKGRFTISRSTSTVYLKMNSLRSEDTAIYYCARGGYSSDIWGQGTLVTVSSASTKGPSVFPLAPSSKSTSGGTAALGCLVKDYFPEPVTVSWNSGALTSGVHTFPAVLQSSGLYSLSSVVTVPSSSLGTQTYICNVNHKPSNTKVDKRVEPKSCDKTHTCPPCPAPEAAGGPSVFLFPPKPKDTLMISRTPEVTCVVVDVSHEDPEVKFNWYVDGVEVHNAKTKPREEQYNSTYRVVSVLTVLHQDWLNGKEYKCAVSNKALPAPIEKTISKAKGQPREPQVYTLPPSRDELTKNQVSLSCAVKGFYPSDIAVEWESNGQPENNYKTTPPVLDSDGSFFLVSKLTVDKSRWQQGNVFSCSVMHEALHNHYTQKSLSLSPGGGGGSGGGGSEVQLQESGGGLVQAGDSLSLSCLVSGRSFNSYTMGWFRQAPGKEREFVAAILWSGPTTYYADSVKGRFTISRDNAKNTVYLQMNSLKPEDTAVYYCAAALGVLVLAPGNVYSYWGQGTQVTVSS
chain 2: DPQLTQSPSSLSATVGQRVTINCQSSQSVAKNNNLAWFQQKPGKPPKLLIYSASTLAAGVPSRFSGSGSGTQFTLTITRVQSEDFATYYCSARDSGNIQSFGGGTRVEIKRTVAAPSVFIFPPSDEQLKSGTASVVCLLNNFYPREAKVQWKVDNALQSGNSQESVTEQDSKDSTYSLSSTLTLSKADYEKHKVYACEVTHQGLSSPVTKSFNRGECGGDKTHTCPPCPAPEAAGGPSVFLFPPKPKDTLMISRTPEVTCVVVDVSHEDPEVKFNWYVDGVEVHNAKTKPREEQYNSTYRVVSVLTVLHQDWLNGKEYKCAVSNKALPAPIEKTISKAKGQPREPQVYTLPPSRDELTKNQVSLWCLVKGFYPSDIAVEWESNGQPENNYKTTPPVLDSDGSFFLYSKLTVDKSRWQQGNVFSCSVMHEALHNRFTQKSLSLSPGGGGGSGGGGSQVQLVQSGGGLVQAGGSLSLSCAFSGRTFSMYTMGWFRQAPGKEREFVAANRGRGLSPDIADSVNGRFTISRDNAKNTLYLQMDSLKPEDTAVYYCAADLQYGSSWPQRSSAEYDYWGQGTTVTVSS
notes: tri-miniGNC; D3 αCD3* (Fab), D4 αEGFR VHH, D5 αHER3 VHH
As to B4, the dissociation constant Kd worked out at 20.6 nM with human EGFR, 64.4 nM in the assay with human CD3 and 10.5 nM in the assay with human HER3.

B5: SI-75X15 (bispecific antibody, human IgG1, kappa, L234A L235A)
chain 1: QVQLQESGGRLVQPGEPLSLTCKTSGIDLSSNAIGWVRQAPGKGLEWIGVIFGSGNTYYASWAKGRFTISRSTSTVYLKMNSLRSEDTAIYYCARGGYSSDIWGQGTLVTVSSASTKGPSVFPLAPSSKSTSGGTAALGCLVKDYFPEPVTVSWNSGALTSGVHTFPAVLQSSGLYSLSSVVTVPSSSLGTQTYICNVNHKPSNTKVDKRVEPKSCDKTHTCPPCPAPEAAGGPSVFLFPPKPKDTLMISRTPEVTCVVVDVSHEDPEVKFNWYVDGVEVHNAKTKPREEQYNSTYRVVSVLTVLHQDWLNGKEYKCAVSNKALPAPIEKTISKAKGQPREPQVYTLPPSRDELTKNQVSLSCAVKGFYPSDIAVEWESNGQPENNYKTTPPVLDSDGSFFLVSKLTVDKSRWQQGNVFSCSVMHEALHNHYTQKSLSLSPG
chain 2: DPQLTQSPSSLSATVGQRVTINCQSSQSVAKNNNLAWFQQKPGKPPKLLIYSASTLAAGVPSRFSGSGSGTQFTLTITRVQSEDFATYYCSARDSGNIQSFGGGTRVEIKRTVAAPSVFIFPPSDEQLKSGTASVVCLLNNFYPREAKVQWKVDNALQSGNSQESVTEQDSKDSTYSLSSTLTLSKADYEKHKVYACEVTHQGLSSPVTKSFNRGECGGDKTHTCPPCPAPEAAGGPSVFLFPPKPKDTLMISRTPEVTCVVVDVSHEDPEVKFNWYVDGVEVHNAKTKPREEQYNSTYRVVSVLTVLHQDWLNGKEYKCAVSNKALPAPIEKTISKAKGQPREPQVYTLPPSRDELTKNQVSLWCLVKGFYPSDIAVEWESNGQPENNYKTTPPVLDSDGSFFLYSKLTVDKSRWQQGNVFSCSVMHEALHNRFTQKSLSLSPGGGGGSGGGGSQVQLVQSGGGLVQAGGSLSLSCAFSGRTFSMYTMGWFRQAPGKEREFVAANRGRGLSPDIADSVNGRFTISRDNAKNTLYLQMDSLKPEDTAVYYCAADLQYGSSWPQRSSAEYDYWGQGTTVTVSS
notes: bi-miniGNC; D3 αCD3* (Fab), D5 αHER3 VHH
On to B5, for which the Kd with human CD3 turned out to be 38.1 nM; with human HER3 it was 13.7 nM.
